Consider five molecules from publication PMC5960609 (Biochemical pharmacology, 2018).

The chains are these.
B1: TH553, thioredoxin fusion of human AHR aa1-295 (CΔ553) (domain or fragment, UniProt P35869 1-295, looked up)
chain: MNSSSANITYASRKRRKPVQKTVKPIPAEGIKSNPSKRHRDRLNTELDRLASLLPFPQDVINKLDKLSVLRLSVSYLRAKSFFDVALKSSPTERNGGQDNCRAANFREGLNLQEGEFLLQALNGFVLVVTTDALVFYASSTIQDYLGFQQSDVIHQSVYELIHTEDRAEFQRQLHWALNPSQCTESGQGIEEATGLPQTVVCYNPDQIPPENSPLMERCFICRLRCLLDNSSGFLAMNFQGKLKYLHGQKKKGKDGSILPPQLALFAIATPLQPPSILEIRTKNFIFRTKHKLDF

One experiment deals with GST-p23 D108A (human) (UniProt Q15185). As to the kind of experiment: pull-down.
Another experiment has as its target GST-p23 D112A (human) (UniProt Q15185). As to the kind of experiment: pull-down.
A further experiment has as its target GST-p23 W106A (human) (UniProt Q15185). Briefly: pull-down.
Experiment [1] addresses Full-length human ARNT expressed in Pichia (human, UniProt P27540 1-789). Briefly: native gel or EMSA. On the technique in general: Mobility shift assays separate free from complexed probe on a gel.
Experiment [2] deals with B1. As to the kind of experiment: pull-down.

Chain of Full-length human ARNT expressed in Pichia (P27540 whole entry): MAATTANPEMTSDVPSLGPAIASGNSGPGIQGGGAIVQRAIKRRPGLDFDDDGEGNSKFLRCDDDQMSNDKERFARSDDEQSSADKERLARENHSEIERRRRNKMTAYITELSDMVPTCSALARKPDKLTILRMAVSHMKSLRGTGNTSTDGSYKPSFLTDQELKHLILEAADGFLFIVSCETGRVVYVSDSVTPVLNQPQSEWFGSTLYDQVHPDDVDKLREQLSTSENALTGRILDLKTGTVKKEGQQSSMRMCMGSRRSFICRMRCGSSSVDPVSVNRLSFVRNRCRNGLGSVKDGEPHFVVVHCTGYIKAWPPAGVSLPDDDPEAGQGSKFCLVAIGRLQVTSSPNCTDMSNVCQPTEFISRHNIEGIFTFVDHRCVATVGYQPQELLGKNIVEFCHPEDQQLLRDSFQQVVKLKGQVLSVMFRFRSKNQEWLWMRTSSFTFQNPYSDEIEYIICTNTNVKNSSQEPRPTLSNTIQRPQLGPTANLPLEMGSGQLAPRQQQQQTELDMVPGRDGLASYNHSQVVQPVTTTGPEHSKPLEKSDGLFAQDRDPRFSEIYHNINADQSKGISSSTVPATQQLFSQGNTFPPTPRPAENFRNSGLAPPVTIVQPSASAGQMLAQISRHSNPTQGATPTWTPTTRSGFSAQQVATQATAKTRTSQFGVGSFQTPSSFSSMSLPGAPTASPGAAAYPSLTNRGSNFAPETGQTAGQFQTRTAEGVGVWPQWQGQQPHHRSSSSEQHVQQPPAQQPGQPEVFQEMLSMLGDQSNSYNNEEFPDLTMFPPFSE

Turning to “Histidine fusion of full-length human Hsp90 (from UniProt P07900 1-732) (natural protein)”, the Hsp90 co-precipitated, percent of wild-type p23 with GST-p23 D108A (human) was determined as 12%; with GST-p23 D112A (human), 41%; with GST-p23 W106A (human) it was 19%. Consider B1, for which, in experiment [1], the binding result is reported as “binds”.

B2: GST-p23 CΔ50 (p23 aa1-110, lacking the terminal 50 amino acids) (domain or fragment, human, UniProt Q15185 1-110, looked up)
chain: MQPASAKWYDRRDYVFIEFCVEDSKDVNVNFEKSKLTFSCLGGSDNFKHLNEIDLFHCIDPNDSKHKRTDRSILCCLRKGESGQSWPRLTKERAKLNWLSVDFNNWKDWE
On to B2, for which the binding result in experiment [2] is given as “binds”.

B3: GST-p23 D108A (natural protein, human, UniProt Q15185 1-160, looked up)
chain: MQPASAKWYDRRDYVFIEFCVEDSKDVNVNFEKSKLTFSCLGGSDNFKHLNEIDLFHCIDPNDSKHKRTDRSILCCLRKGESGQSWPRLTKERAKLNWLSVDFNNWKAWEDDSDEDMSNFDRFSEMMNNMGGDEDVDLPEVDGADDDSQDSDDEKMPDLE
B3: in experiment [2], the binding result was “binds”.

B4: GST-p23 D112A (natural protein, human, UniProt Q15185 1-160, looked up)
chain: MQPASAKWYDRRDYVFIEFCVEDSKDVNVNFEKSKLTFSCLGGSDNFKHLNEIDLFHCIDPNDSKHKRTDRSILCCLRKGESGQSWPRLTKERAKLNWLSVDFNNWKDWEDASDEDMSNFDRFSEMMNNMGGDEDVDLPEVDGADDDSQDSDDEKMPDLE
For B4, the binding result in experiment [2] is on record as “binds”.
